Experimental data from PMC2147998.

Target: UNG2 S23D/T60D/S64D (human) (UniProt P13051)
Assay: co-IP

UniProt P13051, sequence (P13051 whole entry S23D/T60D/S64D): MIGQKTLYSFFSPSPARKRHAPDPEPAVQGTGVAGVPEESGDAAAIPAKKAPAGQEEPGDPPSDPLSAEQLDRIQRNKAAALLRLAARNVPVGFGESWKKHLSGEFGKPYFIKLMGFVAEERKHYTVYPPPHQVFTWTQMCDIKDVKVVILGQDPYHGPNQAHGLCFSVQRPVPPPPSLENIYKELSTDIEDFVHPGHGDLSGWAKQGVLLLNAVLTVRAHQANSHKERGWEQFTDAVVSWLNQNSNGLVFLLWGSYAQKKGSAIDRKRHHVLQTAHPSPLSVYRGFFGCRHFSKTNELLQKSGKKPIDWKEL

RPA-binding capacity relative to WT UNG2: 40%
Substance: replication protein A (RPA) (from UniProt P15927 1-270) (complex)
